Assay results: the NTF2 design screens of Basanta et al. (2020)

Assay: protease stability score; higher = more stable; yeast display proteolysis, trypsin and chymotrypsin;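 note: log10 excess protease needed over predicted unfolded state with 0 meaning unfolded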

Point of comparison: “DEHKEAEELARQLQRVARHNNPDQFAHMLDKDVKIDIGDKTVHGRENARNMMTELVKDYDSLDAKVDSFDVHNGTIDIKMTFSFNHNGKTTTTSVEFRARKHNGHVRIVYIKYG”, protease stability score 0.234. Against it:
- DEHIQKQFQKILEAINQNNPEQFRRLVDKHAQITIGDEVVHGRDDAVRTLEKKMREMKVEIEVDSVNVQGEKLTATLKVELDINGKPNTDTVVVQMRAENGKLKSAHYRVDPTTRRKVKS — lower, -0.179
- DEHKAHRRAQELVEVMKQGDFKRWQEMADPNADVHYGDKRVHGMNEAADVMRQIRNDADHIRVKTYEAKGERIHIDFRVSFNGKQITFDLVVEIRNGTIKTAQFDPDAIRHLES — higher, 0.5
- DEHKEAHQFAREMNKALETGDPDRYAQLADPNVKVDIGDKTYKGREDMSQYIEDLLTDADHVSMNIRSIDVQGEKVSLDFEVSNDSNGQQTRRKVKVTAERQGDKLVIVSIKVS — lower, 0.184
- DEHKEASEYIEQAEENMRDNNFRRMMQNADENVKLKYGDKELEGREQVESWANTVQSRADHFEIRVESMTVTGDHISIVLSHIVRHDGRRVKQKIIIIFKVHNGRARIEHIEFK — lower, 0.044
- DEHKEREIAERYAQNLTHGNPTEIARQFDPNVKMTVGDKELQGREQVEEALHNFRERVDHHSYDTFTVSNGRVNISAQANVDGKNVKVDVRVVVNNGRVKDVKINPEQWKHVQG — lower, -0.234
- DEHKHAEQHVKELIDALETGDPEKVRKNADEDVSAVYGDTTLQGTDQVVKAVHDIRNRYDSVRVEIKTVHIQNGRVVVTATVVLNQNGKNDTVSANIQLKVDNGRFKLVHDQLG — higher, 0.739
- DEHKIAKKLADTVMSLMKTGNFDQLAKQADPNVKIEIGDTTIHGREELVKTQKRLNDQIDHVDVRVNKVQMHGDKVNIDMDFVINVNGKNERRKLTVRAKVHNGRAIITEIRYG — higher, 1.01
- DEHKIATKQMEEFTEAMKRGDEDRMKSNADENVRIEVGDKEVHGQNQFKQTVANILKRVDHIRIKLRDWRNHNGRVDLVYQVNFDHNGRHKNDKYTVRMRIQGDKAKIEHVKAP — higher, 0.349
- DEHKLKEFATRIMEAWEQGDPRKLEELMDPNARYIVGDKTLHGREEAKKRMEEFRKNVDHVEFTSVRAQNGHISITFVANVNGERETRVVDIKVDNGRVKNMDIKHK — higher, 0.7
- DEHKLQQVFEKFLKAFNTGDRDLARKLMDPNVKLDVGDKTYHGREQAMRWMHQVRQKADHIQVQSMESSGNKATVDIVIEHNGKSTSEVIRLEVENGHFRHVRKDSP — lower, 0.091
- DEHKQIREFQKKQQKWWERGNWEELDKMFPPDARMSIGDTTVHGRESIRKTLKDLVDSADSVSVEFKHFKFHNGRAHVDAVLSVDVNGKKVDVKFNANLQVHNGTLFVDEVVRK — lower, 0.118
- DEHKQQERAEDAVRVMQKGDERRFHEQLDENVRVTIGDREVHGRENAVEMFQEWVKRADHIRVDKLEVSNGVVNAHFEVEHNGQTRHQVMVVTYHNGEIQHMTIDRG — higher, 0.741
- DEHKVKEAAERFVRMLEHNDPDTLSKLFDPNVTMQVGDKEYQGRETLMRLVKELKKRVDHIEVKQVHASNGRVNVRMTIQFNGKRFEFTMHIVLHDGRVDTLSLDVRNEEEKRRVDS — higher, 1.31
- DEHKVKEIEDIVRNNDFLKLANMADENARVRYGDKDFHGRERIKTQAQRFETKFDHAEIKSLDVRGNEISVDMVAVFNGRSVRFRMILVVKNGQIKMMEFRATSEKEETKLKEALS — higher, 1.25
- DEHKYRKLAEQINKALEDGDSREMMRLMDKDVKARYGDKTVHGRDDARKLFEDRQDHVDKIQVDDYRVDGDDITVVMTYNHNGRTTVQVLVFRLRNGRIKSASVHSQ — higher, 0.998
- DEHLFKRLVDIIKHGNFEELARQADENARVVVGDRTVKGRNEVEELMQRLRQKIDHVQIDHWSRHGDTVTISFVANVNGRRLEFTLMAAFDNGRIHEVVFHSTNEEVTKIMKEILS — higher, 1.93
- DEHLHKAVNQLWHAIKTNDPDKVQELADPNVRIQVGDKEIHGREEFAHQVRRTREQMRVRIDIKQVDVQGNKVDIEYDYEYNVNGQPRSDRVTAVFVLHNGKVQRMHIHISEEQLRQQEK — higher, 0.886
- DEHLLKEAEKHLKQIERGNPDEAVKMVDPNAKFHIGDKTIHGREHWREWVERQVKDQRFKIRLDDMEDHNGKLVLEVTATYDINGKPVTLTVRWEFDIHNGRAQSVRVQVDPKQQEDLKR — higher, 0.535
- DEHLNRHLSTVLNILQEGDPKKLLQQFDPNAHFQIGDTHVHGREQMDQQMERERRRARTEVKDYKVDDQGEQLVLHMTFRVDRNGKPKEMQATIKAEVHNGHFKEMKFETDR — lower, -0.089
- DEHLQEVWENMLRAQENGDPDSFSRLVDPNVDFVYGDQTVHGREQAMTELKRRTDEIRFEIHHVDVRAQNGHIRVRIDQVKEHNGTPHREKTKNTIVADGDKVKSVEVRSDG — lower, -0.256
- DEHLQTLVTDLIRAEQNNDEERLKRLMDPNVRAQYGDQTVSGREEIVQKIIHKNREIHFSQEIKSISAHNGRIHVTVEFTEEHNGEPRRDKMHQTIIAHGDQIKEVRVKSDG — lower, -0.28
- DEHLVEKVEEFLQNLQNNNEEEIQKQVDPNAKIDVGDKTVDGREEANKWAEELKDESRFEIKDVKYESHNGRVRANFTAQVDHNGRPETRKYDITFNWHDGVIKHIDNKTTS — higher, 0.403
- DEHLVRLADRLLTAVRHGDEDRWVEQFDPNATVKIGDKELHGRSQIKTELERERDTSRVNVQRFSIEDQGDKAVVDVEYVITKNGRPQKDRAKATYNVNNGRFKNASMQKVS — lower, -0.413
- DEHNAHVLKQAMEAMATGDEKRFVELVDPNARMKVGDKEIKGREDFQEYLTDLHRHARVEVHHIHVNDNGDRFEIDVTQVIEINGRPDTKRMTLEAVAHNGQVKEINLRVPEEEWRRLER — higher, 0.316
- DEHNEAVELMKKLWEAARTGDEEELHKQVDKDVRINVGDKELHGNSQAARKIMERAKRVDHVDVKIQEVTHKGDKIVMRVQFRNTHNGRETDSRYVVWFKNSNGRWVFVKIERG — higher, 1.31
- DEHNHKVAEEIFKALTTGDPDKVRENFDKDASLVIGDKTVNGRKQIKEEVQKRKDEMRIDFKNIDIQVSDGKVRVNVRMQVNINGQPVDFTLDAEFDIHNGKAKQVRFEFDEKDKRTLEQ — lower, -0.059
- DEHNMKLASRLVRAVQTNDPDQWVRNVDKNVRVQVGDKTVHGREEFHRQMEKKAREMRYEVQMDQVTVHGDKVRIDITERSNVNGRPHHKRAEMIVHVSNGKVQRVEVQDRK — lower, -0.162
- DEHNNEMARKVLHAWRKGDENRVKRMLDPNARIVIGDKTIHGMEQMQTWVQELKKEITIDLKSVHVQSQGDKANVEFTHKQKDNGKPDSRKVTVIFVFSNGRIKRIQVDDDG — lower, 0.033
- DEHNSRQAKEWVKALNHNDTSRLMELVDPNATITVGDKSLTGREQMSEDVDRKREEINVFVNRVEVNSHGDRAKVRIDYQQHENGRPQRNVIVAILQFHNGKIQRVENEHDQ — lower, -0.052
- DEHNVELARKLRSAVEKNSEKEAKNNIDKDVRAQYGDQEINGREHFAEWVQRLTHHIQWEIKSVTVRVTNGRVDVKMHVREEQNGKPREMDVKMTVVFDNGRIENVQVKKHG — higher, 0.448
- DEHNVHKVKSMIRAMKTGDEETAQRLADPNVHVKIGDHTLQGRSQLKEYVKKLKTQAKFDFREVDAQDHNGHVKVNVDVVARINGKPVRYEVIIHVTFHNGKIKSAEYQVPQDYLDTLES — higher, 0.522
- DEHNVRLAERLLHAIDTNDPKRVKEQVDKDVEYEVGDKRVHGRDDYIKQVETEIRQMSIHIQSMDIHSNGDKVNVRVTYTFTVDGRPQEDTVDYEVQFDNGKVRTVRNRFSEEQEERQKK — lower, -0.245
- DEHNYTILQEIWEALKTNNKERFDELADPNARFQVGDKEFHGMETAARHLIRRHTEMRLDMKVDDYRLNGDHLSVDAKVRFRVNGQPNHYQMTLHAQIQGDKLKRMVWRIPESVLERIKS — higher, 0.66
- DEHQRRKAKEFLDALRDGNPDDVKKYVDPNARRTVGDKSIHGRDQISHHVEKLKKKMRIEFRIQTITVHGNHIDIKAKMEFEINGKPNTHTFSQSMHAHNGKIKDIHVRIPEEVLRKSKR — lower, -0.06
- DEHRLATEAIDQFERALQSGNPDEITKMADPDARVHVGDTQLRGREELQRYMHEVRQRHDQVEVHVHRISIDGNKINIHFVLNLNHNGQTDSQSYEMTARVQNGSAVVKEIIQQ — lower, -0.296
